Source: patent US20200397896A1, “Combination Therapies Comprising Daratumumab, Bortezomib, Thalidomide and Dexamethasone and Their Uses” (Janssen Biotech, Inc., priority 2019, published 2020)

Assays:
[1] = tested on: patients with multiple myeloma; assay: Clinical trials pooled (monotherapy and combination treatments; N=2,066), safety
[2] = tested on: adult patients with relapsed and refractory multiple myeloma; assay: DARZALEX monotherapy safety, three open-label clinical trials
From the text: (§2) The median duration of exposure was 3.3 months (range: 0.03 to 20.04 months).

[3] = tested on: anti-daratumumab antibodies; assay: Immunogenicity in clinical trials; assay type: in vivo, human
From the text: As with all therapeutic proteins, there is the potential for immunogenicity. The detection of antibody formation is highly dependent on the sensitivity and specificity of the assay. Additionally, the observed incidence of antibody (including neutralizing antibody) positivity in an assay may be influenced by several factors including assay methodology, sample handling, timing of sample collection, concomitant medications, and underlying disease. For these reasons, comparison of the incidence of antibodies to daratumumab in the studies described below with the incidence of antibodies in other studies or to other products may be misleading. […] One patient administered DARZALEX as combination therapy, developed transient neutralizing antibodies against daratumumab. However, this assay has limitations in detecting anti-daratumumab antibodies in the presence of high concentrations of daratumumab; therefore, the incidence of antibody development might not have been reliably determined.

[4] = tested on: patients with relapsed or refractory multiple myeloma who had received at least 3 prior lines of therapy; assay: SIRIUS open-label trial, DARZALEX monotherapy efficacy; assay type: in vivo, human
From the text: (§1) Treatment continued until unacceptable toxicity or disease progression.

[5] = human, in vivo
[6] = tested on: patients with newly diagnosed multiple myeloma eligible for ASCT; details: in vivo
From the text: Safety evaluations will include adverse event monitoring, physical examinations, electrocardiogram monitoring (ECGs), clinical laboratory parameters (hematology and chemistry), vital sign measurements, and Eastern Cooperative Oncology Group (ECOG) performance status.
In general, adverse events that occurred during the induction/consolidation and maintenance stages will be summarized separately. Treatment-emergent adverse events for each stage will be defined as events that occur or worsen after administration of the first dose of during that stage and through 30 days after the last dose of study drug in that stage and before the next phase of treatment begins.
Melphalan 200 mg/m^2 was pre-ASCT high-dose therapy.

[7] = DARZALEX solution pH and storage of diluted solution; assay type: physicochemical
From the text: Prepare the solution for infusion using aseptic technique as follows: • Calculate the dose (mg), total volume (mL) of DARZALEX solution required and the number of DARZALEX vials needed based on patient actual body weight. • Check that the DARZALEX solution is colorless to pale yellow. […] Infusion bags/containers must be made of either polyvinylchloride (PVC), polypropylene (PP), polyethylene (PE) or polyolefin blend (PP+PE). Dilute under appropriate aseptic conditions. Discard any unused portion left in the vial. • Gently invert the bag/container to mix the solution. […] The diluted solution may develop very small, translucent to white proteinaceous particles, as daratumumab is a protein. […] (59° F.-77° F.) and in room light. Diluted solution may be kept at room temperature for a maximum of 15 hours (including infusion time). • If not used immediately, the diluted solution can be stored prior to administration for up to 24 hours at refrigerated conditions 2° C.-8° C. (36° F.-46° F.) and protected from light.
DARZALEX is supplied as a colorless to pale yellow preservative-free solution for intravenous infusion in single-dose vials. The pH is 5.5.

[8] = Clinical pharmacokinetics of daratumumab; details: 1 to 24 mg/kg monotherapy or 1 to 16 mg/kg combination therapy
[9] = tested on: patients with multiple myeloma; details: human, in vivo
[10] = tested on: adult patients with relapsed and refractory multiple myeloma; details: human, in vivo
From the text: as §2

[11] = tested on: patients with relapsed or refractory multiple myeloma who had received at least 2 different cytoreductive therapies; assay: GEN501 open-label dose escalation trial, DARZALEX monotherapy efficacy; assay type: in vivo, human
From the text: as §1

[12] = monotherapy 16 mg/kg, N = 156, treatment-emergent laboratory abnormality

Substance: DARZALEX: IgG1κ human monoclonal antibody against CD38; HC SEQ ID NO: 9, LC SEQ ID NO: 10
- Grade 3/4 infusion reaction at Week 2 or subsequent infusions ([1]; N=2,066): Less than 1%
- incidence of any grade infusion reactions, Week 2 infusion ([1]; N=2,066): 2%
- incidence of any grade infusion reactions, first (16 mg/kg, Week 1) infusion ([1]; N=2,066): 37%
- incidence of any grade infusion reactions, subsequent infusions (cumulatively) ([1]; N=2,066): 6%
- incidence of infusion modification due to reactions ([1]; N=2,066): 36%
- patients who experienced an infusion reaction ([1]; clinical trials, all patients): approximately half
- persistence of positive indirect antiglobulin test after the last infusion ([1]; human, in vivo): up to 6 months
- Serious adverse reaction: general physical health deterioration ([2]; monotherapy): 3%
- Serious adverse reaction: pneumonia ([2]; monotherapy): 6%
- Serious adverse reaction: pyrexia ([2]; monotherapy): 3%
- discontinuations due to adverse reactions ([2]; monotherapy): 4%
- treatment delay due to adverse reactions ([2]; monotherapy): 15%
- Arthralgia, Any Grade ([2]; monotherapy 16 mg/kg, N = 156): 17%
- Arthralgia, Grade 3 ([2]; monotherapy 16 mg/kg, N = 156): 0%
- Arthralgia, Grade 4 ([2]; monotherapy 16 mg/kg, N = 156): 0%
- Back pain, Any Grade ([2]; monotherapy 16 mg/kg, N = 156): 23%
- Back pain, Grade 3 ([2]; monotherapy 16 mg/kg, N = 156): 2%
- Back pain, Grade 4 ([2]; monotherapy 16 mg/kg, N = 156): 0%
- Chills, Any Grade ([2]; monotherapy 16 mg/kg, N = 156): 10%
- Chills, Grade 3 ([2]; monotherapy 16 mg/kg, N = 156): 0%
- Chills, Grade 4 ([2]; monotherapy 16 mg/kg, N = 156): 0%
- Constipation, Any Grade ([2]; monotherapy 16 mg/kg, N = 156): 15%
- Constipation, Grade 3 ([2]; monotherapy 16 mg/kg, N = 156): 0%
- Constipation, Grade 4 ([2]; monotherapy 16 mg/kg, N = 156): 0%
- Cough, Any Grade ([2]; monotherapy 16 mg/kg, N = 156): 21%
- Cough, Grade 3 ([2]; monotherapy 16 mg/kg, N = 156): 0%
- Cough, Grade 4 ([2]; monotherapy 16 mg/kg, N = 156): 0%
- Decreased appetite, Any Grade ([2]; monotherapy 16 mg/kg, N = 156): 15%
- Decreased appetite, Grade 3 ([2]; monotherapy 16 mg/kg, N = 156): 1%
- Decreased appetite, Grade 4 ([2]; monotherapy 16 mg/kg, N = 156): 0%
- Diarrhea, Any Grade ([2]; monotherapy 16 mg/kg, N = 156): 16%
- Diarrhea, Grade 3 ([2]; monotherapy 16 mg/kg, N = 156): 1%
- Diarrhea, Grade 4 ([2]; monotherapy 16 mg/kg, N = 156): 0%
- Dyspnea, Any Grade ([2]; monotherapy 16 mg/kg, N = 156): 15%
- Dyspnea, Grade 3 ([2]; monotherapy 16 mg/kg, N = 156): 1%
- Dyspnea, Grade 4 ([2]; monotherapy 16 mg/kg, N = 156): 0%
- Fatigue, Any Grade ([2]; monotherapy 16 mg/kg, N = 156): 39%
- Fatigue, Grade 3 ([2]; monotherapy 16 mg/kg, N = 156): 2%
- Fatigue, Grade 4 ([2]; monotherapy 16 mg/kg, N = 156): 0%
- Headache, Any Grade ([2]; monotherapy 16 mg/kg, N = 156): 12%
- Headache, Grade 3 ([2]; monotherapy 16 mg/kg, N = 156): 1%
- Headache, Grade 4 ([2]; monotherapy 16 mg/kg, N = 156): 0%
- Hypertension, Any Grade ([2]; monotherapy 16 mg/kg, N = 156): 10%
- Hypertension, Grade 3 ([2]; monotherapy 16 mg/kg, N = 156): 5%
- Hypertension, Grade 4 ([2]; monotherapy 16 mg/kg, N = 156): 0%
- Infusion reaction, Any Grade ([2]; monotherapy 16 mg/kg, N = 156): 48%
- Infusion reaction, Grade 3 ([2]; monotherapy 16 mg/kg, N = 156): 3%
- Infusion reaction, Grade 4 ([2]; monotherapy 16 mg/kg, N = 156): 0%
- Musculoskeletal chest pain, Any Grade ([2]; monotherapy 16 mg/kg, N = 156): 12%
- Musculoskeletal chest pain, Grade 3 ([2]; monotherapy 16 mg/kg, N = 156): 1%
- Musculoskeletal chest pain, Grade 4 ([2]; monotherapy 16 mg/kg, N = 156): 0%
- Nasal congestion, Any Grade ([2]; monotherapy 16 mg/kg, N = 156): 17%
- Nasal congestion, Grade 3 ([2]; monotherapy 16 mg/kg, N = 156): 0%
- Nasal congestion, Grade 4 ([2]; monotherapy 16 mg/kg, N = 156): 0%
- Nasopharyngitis, Any Grade ([2]; monotherapy 16 mg/kg, N = 156): 15%
- Nasopharyngitis, Grade 3 ([2]; monotherapy 16 mg/kg, N = 156): 0%
- Nasopharyngitis, Grade 4 ([2]; monotherapy 16 mg/kg, N = 156): 0%
- Nausea, Any Grade ([2]; monotherapy 16 mg/kg, N = 156): 27%
- Nausea, Grade 3 ([2]; monotherapy 16 mg/kg, N = 156): 0%
- Nausea, Grade 4 ([2]; monotherapy 16 mg/kg, N = 156): 0%
- Pain in extremity, Any Grade ([2]; monotherapy 16 mg/kg, N = 156): 15%
- Pain in extremity, Grade 3 ([2]; monotherapy 16 mg/kg, N = 156): 1%
- Pain in extremity, Grade 4 ([2]; monotherapy 16 mg/kg, N = 156): 0%
- Pneumonia, Any Grade ([2]; monotherapy 16 mg/kg, N = 156): 11%
- Pneumonia, Grade 3 ([2]; monotherapy 16 mg/kg, N = 156): 6%
- Pneumonia, Grade 4 ([2]; monotherapy 16 mg/kg, N = 156): 0%
- Pyrexia, Any Grade ([2]; monotherapy 16 mg/kg, N = 156): 21%
- Pyrexia, Grade 3 ([2]; monotherapy 16 mg/kg, N = 156): 1%
- Pyrexia, Grade 4 ([2]; monotherapy 16 mg/kg, N = 156): 0%
- Vomiting, Any Grade ([2]; monotherapy 16 mg/kg, N = 156): 14%
- Vomiting, Grade 3 ([2]; monotherapy 16 mg/kg, N = 156): 0%
- Vomiting, Grade 4 ([2]; monotherapy 16 mg/kg, N = 156): 0%
- Anemia, Any Grade [2, 12]: 45%
- Anemia, Grade 3 [2, 12]: 19%
- Anemia, Grade 4 [2, 12]: 0%
- Lymphopenia, Any Grade [2, 12]: 72%
- Lymphopenia, Grade 3 [2, 12]: 30%
- Lymphopenia, Grade 4 [2, 12]: 10%
- Neutropenia, Any Grade [2, 12]: 60%
- Neutropenia, Grade 3 [2, 12]: 17%
- Neutropenia, Grade 4 [2, 12]: 3%
- Thrombocytopenia, Any Grade [2, 12]: 48%
- Thrombocytopenia, Grade 3 [2, 12]: 10%
- Thrombocytopenia, Grade 4 [2, 12]: 8%
- Serious adverse reactions, patients ([2]; monotherapy, 156 patients): 33%
- patients positive for anti-daratumumab antibodies ([3]; 111 evaluable monotherapy patients): none
- patients positive for anti-daratumumab antibodies ([3]; 1,050 evaluable combination therapy patients): 2
- patients who developed transient neutralizing antibodies against daratumumab ([3]; combination therapy): One
- median duration of response [4]: 7.4 months
- median time to response [4]: 1 month
- Overall response rate (ORR) ([4]; N = 106): (29.2%)
- Partial response (PR) ([4]; N = 106): (17.0%)
- Stringent complete response (sCR) ([4]; N = 106): (2.8%)
- Very good partial response (VGPR) ([4]; N = 106): (9.4%)
- linear clearance, mean±SD [5]: 171.4 ± 95.3 mL/day
- terminal half-life associated with linear clearance, mean±SD [5]: 18 ± 9 days
- time to steady state into the every 4-week dosing period [5]: approximately 5 months
- trough serum concentration (Cmin) at the end of weekly dosing, mean±SD [5]: 573 ± 332 µg/mL
- volume of distribution [5]: 4.7 ± 1.3 L
- IRRs Grade 3 or 4 at re-initiation following ASCT [6]: < 1%
- incidence of IRRs, first infusion following ASCT [6]: 11%
- storage time of diluted solution at refrigerated conditions ([7]; 2° C.-8° C., protected from light): up to 24 hours
- storage time of diluted solution at room temperature (including infusion time) ([7]; 15° C.-25° C., room light, diluted in 0.9% Sodium Chloride): ≤ 15 h
- pH of solution ([7]; single-dose vial solution): 5.5
- area under the concentration-time curve (AUC) versus dose [8]: increases more than proportionally
- Hepatitis B virus reactivation [9]: less than 1%
- herpes zoster [10]: 3%
- CR, number of patients ([11]; GEN501): 1
- VGPR, number of patients ([11]; GEN501): 3
- median duration of response ([11]; GEN501): not estimable
- median time to response ([11]; GEN501): 1 month
- Overall response rate ([11]; GEN501, 42 patients, 16 mg/kg): 36%
